Measured values reported in patent US7026446.
Values joined by “and” are separate entries in the source; they are usually repeats but may differ in a detail not shown here. Equal entries are not always repeated.

Columns and labels:
[1] = molecular target: biotinylated mouse anti dengue IgG (clone 13C11); assay: Dengue IgM indirect ELISA: Prep A 1/100 premixed with 13C11-Biotin 1/10,000, dengue 2 antigen plate, HRP sheep anti Human IgM
[2] = molecular target: biotinylated mouse anti dengue IgG (clone 13C11); assay: Dengue IgM indirect ELISA: Prep A 1/1000 premixed with 13C11-Biotin 1/10,000, dengue 2 antigen plate, HRP sheep anti Human IgM
[3] = molecular target: biotinylated mouse anti dengue IgG (clone 13C11); assay: Dengue IgM indirect ELISA: Prep A 1/10 premixed with 13C11-Biotin 1/10,000, dengue 2 antigen plate, HRP sheep anti Human IgM
[4] = molecular target: biotinylated mouse anti dengue IgG (clone 13C11); assay: Dengue IgM capture ELISA: Prep A […] premixed with 13C11-Biotin 1.6 µg/ml, sheep anti human IgM strips, dengue antigen with anti dengue-HRP tracer
[5] = molecular target: biotinylated mouse anti dengue IgG (clone 13C11); assay: Dengue IgM capture ELISA: Prep B 1.0 µg/ml premixed with 13C11-Biotin 1.6 µg/ml, sheep anti human IgM strips, dengue antigen with anti dengue-HRP tracer

Streptavidin-CH3µ Preparation A, sequence (chain): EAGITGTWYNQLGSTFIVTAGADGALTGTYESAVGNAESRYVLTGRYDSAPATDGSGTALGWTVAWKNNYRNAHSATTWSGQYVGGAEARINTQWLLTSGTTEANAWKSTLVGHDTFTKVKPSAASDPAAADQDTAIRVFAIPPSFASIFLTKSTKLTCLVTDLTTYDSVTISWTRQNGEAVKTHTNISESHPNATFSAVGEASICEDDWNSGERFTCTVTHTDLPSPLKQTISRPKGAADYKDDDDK
Streptavidin-CH3µ Preparation B, sequence (chain): as above

A450 [1]	A450 [2]	A450 [3]	A450 [4]	A450 [5]	Substance
1.07 absorbance and 1.08 absorbance	0.212 absorbance and 0.183 absorbance	1.19 absorbance and 1.11 absorbance	1.91 absorbance and 1.85 absorbance		Streptavidin-CH3µ Preparation A
				1.2 absorbance and 1.34 absorbance	Streptavidin-CH3µ Preparation B
